Test results from patent publication US20160287682.

Test system: Notch1, overexpressed in 293T cells

For “Adamts1, V5 tagged, overexpressed in 293T cells”, the “S2 cleavage of Notch1” value was “Adamts1 blocks S2 cleavage of Notch1”.
